Source: the supplement of paper PMC12636428

Test system: Saccharomyces cerevisiae
Test: transcriptional activation domain activity (GFP:mCherry ratio, weighted mean of sorted bins, harmonized to initial dataset scale) (arbitrary fluorescence ratio units); higher = stronger transcriptional activation
Details: beta-estradiol 1 µM; induction time 4 h
Method: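 53-aa protein tiles (fungal proteins plus yeast TF control tiles) fused C-terminally to a DBD-estrogen-binding domain-mCherry synthetic TF, integrated in S. cerevisiae (URA3 locus) with a GFP reporter. Cells were induced with 1 uM beta-estradiol for 4 h at 30 C, FACS-sorted into 8 bins by GFP:mCherry ratio and barcodes sequenced. Activity is the read-weighted mean bin fluorescence (GFP:mCherry), averaged over barcodes (median 12); tiles under 50 reads were discarded. New active-learning values were harmonized by linear fit onto the scale of the initial (Hummel et al.) dataset. The assay saturates at low and high signal.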

| Sequence | transcriptional activation domain activity |
| --- | --- |
| AAPTETAPPAAEPAPVAAPIETKAAEPAAPVTEAPATTATEEVKPAVEPAKTE | 49400 |
| AAPVAEAAPATEAAPASEPSTEAEVPKEEKTEDKKEEKAPKSPKIGRRLSSRV | 17000 |
| AAPVKKEEPKKEETPKAAEETATAPVAETPAVAAAAATEAPKEEAKEEPKRRS | 35400 |
| AAPVVAKKDDKKDKKKEEKKGEKEEKKPADEKKGGDKPKKEKKKAEKKPAAAP | 22200 |
| AAQAPANDGFSEVQHNRGGRGRGGQDQGEGRGGYRGRGRGGRGGGEFRGRGRG | 55800 |
| AAQKFVSDIAADAYQYARVRTNATTGGRSKAEKNAQGGSSAAAKDKSKTVLTL | 29700 |
| AAQRSVMLGHNLVTLEDILMTQRKWRAVLHETFYVRWIAVLRRWLCRLLDWPV | 42900 |
| AARVSDYSMAQFRFLLKFLLVHGRWNYVRICKYTVGTFWKELLFYLTQALFQR | 48200 |
| AASAASEPAPKKRGRPARAKEEVVAAEPEPAVEQPKKGRGRGRKAAEPEPVAV | 18700 |
| AASAEDAVVGEKHKAEEPLDTNGDAKKAKVTNGNGEARKPGRPSKKDKKPQPT | 23100 |
| AASAPAASSPSASAPADEAAENGEEAASSSKNKKKKKKGAAGGAAPAAGGKKP | 40700 |
| AASETTAKKSRGRKRKTVPEPDCDDEDNTGAARCSQPRSRKRARTTAPAEPRE | 12200 |
| AASFISRTMLVLARQKFYNWYGVPQRRLYRDQSVHGTTKKRTWLIKLLSPLLF | 47200 |
| AASKKERQSESHASSKRARSSKNGRGADADSSDEEEAGRSSSRKSRRTSTGDR | 30200 |
| AASPEEVIAPKSKRQPRRNTQAVSADPASLTPPADTKPKRSRAPRKAKVTIAE | 13300 |
| AASQNVDAQPKPKPAQDNDLESESGTSSSSSSSSESGSESDSGSDDGSASGSG | < 6570 |
| AASWILLGFFIKQLYEEFGWAIFHVVGANPKMKTMYQWYQIMICLLKFDFFFF | 48500 |
| AATAEPEKKKGSKKDKAAAAPAPAAAPAKDAKSAKKAKKSAAPPPPPPAASSS | 15600 |
| AATNKYDATIQRMLSRSVFVTCNSWYRVGGTGKNTSIFPGPGMLFWWWTRQAR | 61100 |
| AATSEATTVFWHDPSGFVDRLLGLTRFWFFTLLRYSYRVYFLASRERSRKPLS | 66100 |
| AATTAEPERKKSSKDRKSPEIVSEAKKSKDSPGEVKRSSSKREKEKEKEKSSS | 37300 |
| AATTDGEASANEGALVPAGEGAAEGEAKKPRQRKPRVARPPRPAGEEPTGEPS | 45500 |
| ACAVLLSVVDGLTPLSIICASCSTTGAYWFCCFSMRFFVFIDLLGTLLLYLII | 74900 |
| ACFLGYPIQIDPTFTDFELLSSFSGVIDSCAQSDTLWDFNSFDVAAVLSPLLD | 143000 |
| ACIVFWMGSWVYKYQLMFVFVSKVESGGRVWNVVINRLLFCVVLMQCLMILTI | 73700 |
| ACLFTMELILHNIYAVAIRSAGSPVWSSFTPFELSMFGFWNLIIVWMKLLLPW | 54700 |
| ACSCLSLITIFVGSGVVFQWFVSLIGSVLFQSWILILLLHFRFRYCWRKQGRP | 49200 |

| Sequence | transcriptional activation domain activity |
| --- | --- |
| ACVALVVLFADSLDDLIPGWGIVAWKIVCGFILVPLGFLPLRLLSFTSILGVM | 58500 |
| ADAAGEPAQANGESKSAKRRKQKKAAAAAKAAGATNADGTPAAAAEKPARAQR | 17100 |
| ADADAGKEAEGGAGGKRCKGCGKGEGEGEEGGLRRCARCKVVVYCGRECQKRD | 36700 |
| ADAGGKDKGEKVAGDAEGAPAEGKAEVKGEARAETAVEGAEQQSNGKKRKAAS | 34200 |
| ADALSARSPKKGKKGKKGKKGKKGKKGKKAGAAAAAAGGAAGANGAKAAGAKA | 33300 |
| ADANGGGLKAGGRVTIAIVRQAILEATSSPLQVYLKTCPLASKVFLVALLVRC | 58100 |
| ADASKWWLLGDSFEADVLTFVSLFQFVNSALIFNYGYIFRQAWYRNYLLVSVW | 56700 |
| ADASSSRPQQSKGDKGRSRAPGADRKQESSSSSARASGTGGNNTNGGSSSNNN | 34100 |
| ADCAVIGVNSEEEATELPRAYVVHAKGIPPSEQAAFGVSVQEWVKSRVARHKQ | 80600 |
| ADCAVIGVVSEEEATELPRAYVVHAKGIPPSEHEAFGVSVQEWIKSRVARHKQ | 53600 |
| ADDVGKWGAGLPGSAAVGGAGGGEEEEGKEKKAGGGMAARVLISEVSIKLLVP | 33800 |
| ADEEDADEEDADEEDAGEKDAGEKDAGEEGAGEEDAGEEDASAIDAAACRMVQ | 29800 |
| ADEEDLSSKPRCQRCRKSKKGCDRQRPCGRCKDAGIGIEGCVSEDEGNGRKGR | < 6570 |
| ADEEGEGEAEEKPKRKRATKKKVEEEDDEEEEEEEKPKPKARAKAGSSKKAAT | 21100 |
| ADEEPTSSLYRSNAKEVSRITTGSCSEIKNKLAGMQLGHNKQVSICSSGLCVP | 72000 |
| ADEYIFHLTHGTLCICEHQGEENVVVVNVKSIISVVAMVPFPFIVRGCNNQYF | 32600 |
| ADGEEEEEEGEAAGGSERPGIWGQALMELGSTVCTPKPKCVECPVTATCRAYQ | 55800 |
| ADIHDVVYYGTFTGIFPKLHWWIQKTLHLLKPFGLLSSRQVLVHFMLFHAEQR | 83800 |
| ADIICMIYLIVNYTLLVFVSEVPYHQRARICLRLFCSCNFVTNFYATSAIVYR | 51100 |
| ADKKAKKAAPPPKPESSSSSDSSESDSDAPKAAATVKAAAAAVKKAGKKAVAS | 60900 |
| ADMILGFFFKNFVWTFILFWYQLFCQFNGTMVFDYSLVTLYNLVFTSLPIAFL | 65600 |
| ADNNDDEDQDEEEATPAPKPRGGRAPKAAAAATKKSAAAKKAPATRGRKKIIE | 33500 |
| ADPNGAAAATTAAAPEKKAEEPVTPAKSSAAPASTSSTPASTNTTEKKKKNRL | 34700 |
| ADRLIRILRILMFNWKFWNTGCFATYDPNSNLVRLEIPCSRDLLGTKPGTYYY | 50200 |
| ADRTSRRRDDRSRSRDRGSSRRDSDRHRHHSRRSSRAERTKKEESQGNGTVPD | 17800 |
| ADSARGGDADAKYRDRDRQRQTETETDRQTKTERDTQRQRQRHRHTHTHSPVQ | 37200 |
| ADSDRHKKHKSSSSSSKSRHHDRDDDRDDNDKHSRRSHHKSSSSRHDRDRERG | 46300 |

| Sequence | transcriptional activation domain activity |
| --- | --- |
| ADSGDEYVQDRRDGPAKGGKAPRREKDGRDEEGGRKKAAKKRKRKVQAQPEID | 30100 |
| ADSKTRNKRDGSNSTTSRSRSSRSRGEAVDDDGSSSSKRSSRSSRTDEGGAAR | 41400 |
| ADSRRKTRRVRKRKSSRRHQEEGEEEESESEEEEADARKRRKKEKGGGKDKKK | 23600 |
| ADTILITMVGIFDLIACFFTCIVQVLRFKMGISVQEILIWCWFDLLIFSTSTF | 34300 |
| AEAEKMDVDPAVSTAETEVKQESPAPAAATSVSTPEVKVTPSSAHPSLPAKPL | 18400 |
| AEAGTSKTAAKAEATPVEGTSAPVEGKAQKKEKKEKKPPAEEAGAGKKKGGAA | 16100 |
| AEAQEGRKKDAAAAAEKKEEESPKKEEESAAGEEKQAAPKKKPKKLERRGGAA | 41300 |
| AEDADADGRTQRQGKGAGASSGSERRTHKARSRKSAKLDSKEKDGEKDKEWKG | 23600 |
| AEDKARKEAEDKAREEAEEKAREEQEEAARARADAEAKKAALEAKREAEAKAK | 16300 |
| AEDRYIMELFVEDFICLAISGGPRLPVERAVSSWMVRILLSIQIRNYMQGNRQ | 44500 |
| AEDSDASMDDAPAPKEAAKKAAPVEAGSDSESDSEAEKKKKKAAKKSKKEVVP | 22600 |
| AEEEEDAEDEVVEEKIPAKRGRKPRGEKIEEVSSPAAAAPVRGKKAAAAAAKP | 24200 |
| AEEEQKKPKGKKAAAASKPKKSSDDEPAPGKSKPAARTGSIKGKSTGTKAGAQ | 22300 |
| AEEEVEEEVKEEEEEEAKEEEDANESEPEPAPEPAKKGRGRKAAKAPTPVEDE | 39700 |
| AEEGEEGRRKKGASKARSESGRSRIGGKRKEGEGEREGDEGRKKKRKKNKEKE | 32800 |
| AEEPAPEAPAPEEPAVEEAVPAEEAAPEAPAPVEEATPEKPVAAEEAAPEAPA | 32600 |
| AEEREAKKRAREEEEEEEAERAERAERAARLRRERAEEARRQAEQKHAEEARQ | 12100 |
| AEGADAEGEGEEGEKEQEQEKQDGEKDGSEKETGNGQDGKKSEASLSVLNRLL | 29400 |
| AEHVDLVGCPVHVMTRFWHLYLPAFTLHTVLYIFTLIRVLNCENSPQALLIRR | 56600 |
| AEKEAEPEKEAGSESPQKKITPMKRGRGRPKRGGGAAGASSPEPAAVVVVAER | 14700 |
| AEPSIYSNLFLDARLPNNANSTTGLNDNDYNLDDTNNDNTNSMQSILEDFVSS | 75100 |
| AESGGESAGNASGEDFAAPKKKSSRSRIKKALQSLGSGKLSPKNSRTPKASPV | 28400 |
| AESQLTLRAIVSSKEAGVIIGKGGKNVADLRDETGCKAGVSKVVQGVHDRVLT | 22300 |
| AESQSSRATHTRKRAKQACRQCNARRVRCNVAESQPCANCRSSGSACELLPSK | 26200 |
| AETKCEGATTNHMKVEKREKKKRGEKAADKSKEERRSKRKEKQRKEGKTVRNG | 6970 |
